In PMC12830604 one finds response data, which are given here for two substances.

For this assay, the target named is Gαq construct with N-terminal fusion of LgBiT (UniProt P50148). In words: NanoBiT Gαq-recruitment assay (concentration-response to LTC4). The note with it: read at log[LTC4, (M)] = -6, the highest concentration; n = 3, mean ± s.e.m.; parent: est. 97; read off a plot; scale: normalized Gq response.

“CysLT2R with C-terminal SmBiT (wild type, NanoBiT Gαq-recruitment assay) (from UniProt Q9NS75) R136A”: the response stood at 0.

For the substance “CysLT2R with C-terminal SmBiT (wild type, NanoBiT Gαq-recruitment assay) (from UniProt Q9NS75) S241A”, the response turned out to be 57.
